Laboratory results taken from patent US20230133775A1.

Target: Leucine-rich repeat-containing protein 15 (LRRC15) on LRRC15-expressing cells (UniProt Q8TF66)
Experiment: cell-based or functional assay

Leucine-rich repeat-containing protein 15 (LRRC15) on LRRC15-expressing cells, sequence (Q8TF66 22-581 limits assumed): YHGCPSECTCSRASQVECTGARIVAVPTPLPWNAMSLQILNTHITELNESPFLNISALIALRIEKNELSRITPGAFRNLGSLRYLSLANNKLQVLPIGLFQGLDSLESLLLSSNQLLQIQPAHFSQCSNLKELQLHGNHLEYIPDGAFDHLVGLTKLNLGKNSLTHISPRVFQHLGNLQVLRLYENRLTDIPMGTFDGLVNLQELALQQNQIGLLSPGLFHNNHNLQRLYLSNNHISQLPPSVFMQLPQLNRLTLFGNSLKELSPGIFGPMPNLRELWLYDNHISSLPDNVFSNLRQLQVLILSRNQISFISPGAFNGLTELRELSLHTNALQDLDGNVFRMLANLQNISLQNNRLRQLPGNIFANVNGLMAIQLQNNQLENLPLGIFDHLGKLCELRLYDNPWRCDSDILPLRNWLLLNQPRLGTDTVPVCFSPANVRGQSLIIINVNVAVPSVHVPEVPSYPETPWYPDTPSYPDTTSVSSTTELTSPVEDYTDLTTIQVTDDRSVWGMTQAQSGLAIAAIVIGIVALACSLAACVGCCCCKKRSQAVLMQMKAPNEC

“non-specific low fucose isotype control (IgG1-LF) (antibody)” was tested, and the target cell death in the ADCC assay with NK92-CD16 effector cells was under 30%.
